This assay has as its target T1, PML wild-type fused to GAL4-DBD (UniProt P29590 1-882).
T1 sequence: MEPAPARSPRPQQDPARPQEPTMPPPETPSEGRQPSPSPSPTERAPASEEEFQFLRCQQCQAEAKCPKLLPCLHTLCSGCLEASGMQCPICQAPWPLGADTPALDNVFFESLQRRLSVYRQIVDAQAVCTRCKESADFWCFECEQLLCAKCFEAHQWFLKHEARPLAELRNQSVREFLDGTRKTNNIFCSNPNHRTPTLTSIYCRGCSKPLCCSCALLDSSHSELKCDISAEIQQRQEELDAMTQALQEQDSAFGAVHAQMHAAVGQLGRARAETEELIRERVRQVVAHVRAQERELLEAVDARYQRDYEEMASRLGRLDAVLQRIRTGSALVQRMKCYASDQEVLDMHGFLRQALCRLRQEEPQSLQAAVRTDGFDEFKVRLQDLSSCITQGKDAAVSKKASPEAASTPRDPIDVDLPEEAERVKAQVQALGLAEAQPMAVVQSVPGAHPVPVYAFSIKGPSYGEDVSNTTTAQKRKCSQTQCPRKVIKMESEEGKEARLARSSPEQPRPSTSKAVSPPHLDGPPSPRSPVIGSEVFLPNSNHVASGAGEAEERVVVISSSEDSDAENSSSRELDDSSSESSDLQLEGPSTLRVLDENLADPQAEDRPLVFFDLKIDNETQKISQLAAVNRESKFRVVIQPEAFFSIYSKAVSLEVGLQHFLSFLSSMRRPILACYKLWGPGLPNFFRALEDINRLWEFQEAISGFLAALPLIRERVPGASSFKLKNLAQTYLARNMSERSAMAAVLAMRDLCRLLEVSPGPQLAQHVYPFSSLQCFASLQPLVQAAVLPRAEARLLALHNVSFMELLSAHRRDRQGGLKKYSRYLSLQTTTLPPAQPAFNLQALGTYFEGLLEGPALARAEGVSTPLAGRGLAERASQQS
Nature of the assay: two-hybrid.

B1: Daxx amino acids 433-740 fused to NLS-VP16 (domain or fragment)
chain: AETDDEDDEESDEEEEEEEEEEEEEATDSEEEEDLEQMQEGQEDDEEEDEEEEAAAGKDGDKSPMSSLQISNEKNLEPGKQISRSSGEQQNKGRIVSPSLLSEEPLAPSSIDAESNGEQPEELTLEEESPVSQLFELEIEALPLDTPSSVETDISSSRKQSEEPFTTVLENGAGMVSSTSFNGGVSPHNWGDSGPPCKKSRKEKKQTGSGPLGNSYVERQRSVHEKNGKKICTLPSPPSPLASLAPVADSSTRVDSPSHGLVTSSLCIPSPARLSQTPHSQPPRPGTCKTSVATQCDPEEIIVLSDSD
Turning to B1, the “fold weaker interaction (β-galactosidase) against Daxx 488-740” value is around 20 fold weaker.

B2: Daxx amino acids 625-740 fused to NLS-VP16 (domain or fragment)
chain: SGPPCKKSRKEKKQTGSGPLGNSYVERQRSVHEKNGKKICTLPSPPSPLASLAPVADSSTRVDSPSHGLVTSSLCIPSPARLSQTPHSQPPRPGTCKTSVATQCDPEEIIVLSDSD
Take B2: the “fold strength of interaction (β-galactosidase) against full-length Daxx” value is around 3 fold.

B3: Daxx amino acids 488-740 fused to NLS-VP16 (domain or fragment)
chain: AGKDGDKSPMSSLQISNEKNLEPGKQISRSSGEQQNKGRIVSPSLLSEEPLAPSSIDAESNGEQPEELTLEEESPVSQLFELEIEALPLDTPSSVETDISSSRKQSEEPFTTVLENGAGMVSSTSFNGGVSPHNWGDSGPPCKKSRKEKKQTGSGPLGNSYVERQRSVHEKNGKKICTLPSPPSPLASLAPVADSSTRVDSPSHGLVTSSLCIPSPARLSQTPHSQPPRPGTCKTSVATQCDPEEIIVLSDSD
Turning to B3, the “fold strength of interaction (β-galactosidase) against full-length Daxx” value was around 3 fold.

Values taken from PMC2174231 (The Journal of Cell Biology, 1999).
